{"source": "patent US8846868B2", "about": "“Anti-AREG/HB-EGF antibodies and treatment” (Fusion Antibodies Limited, priority 2008, dated 2014)", "molecules": {"B1": {"name": "8d7 1c8 1e9: cross-specific AREG/HBEGF murine monoclonal antibody; VH Sequence ID No: 5, VL Sequence ID No: 6 (antibody, listed as Mus musculus)", "VH": "MEWSWVILFLMAVVTGVNSEVQLQQSGAELVRPGALVKLSCKASGFNIKDSYIHWVNQRPEQGLEWIGWIDPENGNTIYDPKFQGKASITADTSSNTAYLQLSSLTSEDTAVYYCVSASYRYGFSYWGQGTLVTVSAAKTTPPSVYPWVPGSLX", "VL": "XADXISISCRSNKSLLHTNGNTYLYWFLQRPGQSPQLLIYRMSNLASGVPDRFSGSGSGTAFTLRISRVEAEDVGVYYCMQHLEYPYTFGGGTKLEIKRXX", "modifications": "not fully specified; (154)..(154) Xaa can be any naturally occurring amino acid; (1)..(1) Xaa can be any naturally occurring amino acid"}, "B2": {"name": "8d7 1f6 2f7: cross-specific AREG/HBEGF murine monoclonal antibody; VH Sequence ID No: 7, VL Sequence ID No: 8 (antibody, listed as Mus musculus)", "VH": "MKCSWIIFFLMAVVTGVNSEVQLQQSGAELVRPGALVKLSCKASGFNIKDSYIHWVNQRPEQGLEWIGWIDPENGNTIYDPKFQGKASITADTSSNTAYLQLSSLTSEDTAVYYCVSASYRYGFSYWGQGTLVTVSAAKTTPPPVYPLAPGSL", "VL": "MRAPAQFLGLLVLWIPGAIGDIVMTQAAPSVPVTPGESVSISCRSNKSLLHTNGNTYLYWFLQRPGQSPQLLIYRMSNLASGVPDRFSGSGSGTAFTLRISRVEAEDVGVYYCMQHLEYPYTFGGGTKLEIKRADAAPTVSIFPPSSKLG"}, "B3": {"name": "8d7 1f6 2b3: cross-specific AREG/HBEGF murine monoclonal antibody; VH Sequence ID No: 9, VL Sequence ID No: 10 (antibody, listed as Mus musculus)", "VH": "B2 VH with I6V, I7M", "VL": "B2 VL with A3P, A5L, Q6S"}, "B4": {"name": "Recombinant HBEGF: recombinant HBEGF ligand used to stimulate cell growth and EGFR phosphorylation (protein)", "chain": "DLQEADLDLLRVTLSSKPQALATPNKEEHGKRKKKGKGLGKKRDPCLRKYKDFCIHGECKYVKELRAPSCICHPGYHGERCHGLSL"}}, "key": {"cell growth": {"test_system": "cell growth", "assay": "Comparison of cross-specific antibody to Cetuximab, MTT cell viability", "assay_type": "cell-based", "conditions": "cell growth assay", "experimental": "Antibodies were added to cells at concentration of 20 ug/ml and 40 ug/ml alone and in combination with chemotherapy treatment. Cell viability was assessed 72 hrs after treatment by MTT assay. ** indicates nt P<0.001. * indicates p<0.05."}, "[1]": {"test_system": "colorectal cancer cell line LoVo", "assay": "HBEGF ligand stimulated growth, MTT assay", "assay_type": "cell-based", "procedure": "Different concentrations of cross-specific antibody was preincubated with ligand for an hour before addition to cells. Cell viability was assessed 48 hrs after treatment by MTT assay.\n(§1) Cell viability was assessed by 3-(4,5-dimethylthiazol-2-yl)-2,5-diphenyltetrazolium bromide (MTT, Sigma) assay (Mosmann, 1983). To assess chemotherapy/siRNA interactions 5000 cells were seeded per well on 96 well plate. After 24 hours cells were transfected with siRNA and treated with various chemotherapeutic agents at different concentrations. After 48 hours MTT (1.0 mg/ml) was added to each well and cells were incubated at 37° C. for 2 hours. The culture media was removed and formazan crystals were reabsorbed in 200 μl DMSO. Cell viability was determined by reading the absorbance of each well at 570 nm using a microplate reader (Tecan Sunrise, Biorad, UK)."}, "[2]": {"test_system": "pEGFR(Tyr1068) in MDA-MB231 cells", "assay": "Ligand stimulated phosphorylation of EGFR, MDA-MB231", "assay_type": "cell-based, human", "conditions": "antibody pre-incubated with recombinant HBEGF 1 hour, 20 mins stimulation", "procedure": "(§2) Cells were serum starved before addition of antibody and ligand. Cross-specific antibody (8d7 1f6 2f7, i.e. “2F7”) was pre-incubated with recombinant HBEGF for 1 hour before addition to cells. Cells were stimulated for 20 mins before preparation of cell lysates. 30 μg of protein was loaded on SDS-PAGE gel and transferred to nitrocellulose membrane. The membrane was probed with anti pEGFR(Tyr^1068)\n(§3) 1.5×10^6 cells were seeded in […] in media containing 10% serum. 24 hrs after seeding cells were serum starved for 4 hrs. Antibodies were preincubated for 1 hour with 30 ng/ml of recombinant HBEGF before being added to cells for 20 mins in 2% serum. Cells were washed 3 times in PBS containing phosphatase inhibitors and scraped. Cells were pelleted and lysed. Protein concentration was determined and 30 ug of protein ran on SDS-PAGE for western blot analysis. Blots were probed with pEGFR(Tyr^1068) antibody."}, "[3]": {"test_system": "pEGFR(Tyr1068) in HCT116 cells", "assay": "Ligand stimulated phosphorylation of EGFR, HCT116", "assay_type": "cell-based, human", "conditions": "antibody pre-incubated with recombinant HBEGF 1 hour, 20 mins stimulation", "procedure": "as §2, §3"}, "[4]": {"test_system": "pEGFR(Tyr 1068) in LoVo cells", "assay": "Ligand stimulated phosphorylation of EGFR, LoVo", "assay_type": "cell-based", "conditions": "antibody pre-incubated with recombinant HBEGF 1 hour, 20 mins stimulation", "procedure": "Cells were serum starved before addition of antibody and ligand. Cross-specific antibody (8d7 1f6 2f7, i.e. “2F7”) was pre-incubated with recombinant HBEGF for 1 hour before addition to cells. Cells were stimulated for 20 mins before preparation of cell lysates. 30 μg of protein was loaded on SDS-PAGE gel and transferred to nitrocellulose membrane. The membrane was probed with anti pEGFR(Tyr 1068)\nas §3"}, "[5]": {"test_system": "cancer cell proliferation", "assay": "Cancer cell proliferation, cross-specific antibody alone or with cpt11, MTT assay", "assay_type": "cell-based", "conditions": "100 nM antibody in combination with 10 μM cpt11; MTT 72 hrs", "procedure": "Cells were treated with 100 nM isotype control or 100 nM cross-specific antibody (8d7 1f6 2f7 i.e. “2F7” or 8d7 1f6 2b3 i.e. “2B3” alone or in combination with 10 μM cpt11. Cells were analysed by MTT assay after 72 hrs treatment. ** indicates statistically significant P<0.001. 2B3 RI value is 0.99 therefore an additive effect. 2F7 RI value is 1.1 therefore (slightly) synergistic.\nas §1"}}, "note": "Where a chain is given by its changes, count along the chain named.", "data": [{"molecule": "CCc1c2c(nc3ccc(OC(=O)N4CCC(N5CCCCC5)CC4)cc13)-c1cc3c(c(=O)n1C2)COC(=O)[C@]3(O)CC", "note": "[cpt-11, irinotecan]", "values": [{"measurement": "IC30", "setting": "cell growth", "value": 5, "unit": "µM"}]}, {"molecule": "B1", "values": [{"measurement": "effect on HBEGF stimulation of cell growth", "setting": "[1]; 300 nM antibody", "value": "prevents any stimulation of cell growth by HBEGF"}, {"measurement": "inhibition of ligand induced growth", "setting": "[1]; different antibody concentrations pre-incubated with HBEGF 1 hr, MTT 48 hrs", "value": "inhibit the ligand induced growth in a dose dependent manner"}]}, {"molecule": "B2", "values": [{"measurement": "inhibition of HBEGF stimulated phosphorylation of EGFR", "setting": "[2]", "value": "inhibition of ligand stimulation phosphorylation of EGFR"}, {"measurement": "inhibition of HBEGF stimulated phosphorylation of EGFR", "setting": "[3]", "value": "inhibition of ligand stimulation phosphorylation of EGFR"}, {"measurement": "inhibition of HBEGF stimulated phosphorylation of EGFR", "setting": "[4]", "value": "inhibition of ligand stimulation phosphorylation of EGFR"}, {"measurement": "RI value", "setting": "[5]", "value": 1.1}]}, {"molecule": "B3", "values": [{"measurement": "RI value", "setting": "[5]", "value": 0.99}]}, {"molecule": "B4", "values": [{"measurement": "stimulation of growth", "setting": "[1]; recombinant HBEGF ligand, MTT 48 hrs", "value": "approximately 60%"}]}]}
